Numbering of substitutions follows the chain as printed. Where two headings read alike, the source gives them in different places.
Columns and labels:
[1] = target: spike of SARS-CoV-2 Eng20 (WT) (SARS-CoV-2, UniProt P0DTC2 14-1273); experiment: cell-based or functional assay
[2] = target: T1, SARS-CoV-1 Spike on pseudovirus (SARS-CoV-1, UniProt P59594 14-1255); experiment: cell-based or functional assay
[3] = target: T2, WIV1 Spike on pseudovirus (WIV1 (bat SARS-like coronavirus)); experiment: cell-based or functional assay
[4] = target: T1, SARS-CoV-1 Spike on pseudovirus; experiment: cell-based or functional assay; remark: listed apart in the source
[5] = target: T2, WIV1 Spike on pseudovirus; experiment: cell-based or functional assay; remark: listed apart in the source
[6] = target: T1, SARS-CoV-1 Spike on pseudovirus; experiment: cell-based or functional assay; remark: listed apart in the source
[7] = target: T2, WIV1 Spike on pseudovirus; experiment: cell-based or functional assay; remark: listed apart in the source
[8] = target: T3, MERS spike trimer (recombinant, negative control) (MERS, UniProt K9N5Q8 18-1296); experiment: SPR, Fab over anti-His-captured trimer, 25 C
T3 sequence: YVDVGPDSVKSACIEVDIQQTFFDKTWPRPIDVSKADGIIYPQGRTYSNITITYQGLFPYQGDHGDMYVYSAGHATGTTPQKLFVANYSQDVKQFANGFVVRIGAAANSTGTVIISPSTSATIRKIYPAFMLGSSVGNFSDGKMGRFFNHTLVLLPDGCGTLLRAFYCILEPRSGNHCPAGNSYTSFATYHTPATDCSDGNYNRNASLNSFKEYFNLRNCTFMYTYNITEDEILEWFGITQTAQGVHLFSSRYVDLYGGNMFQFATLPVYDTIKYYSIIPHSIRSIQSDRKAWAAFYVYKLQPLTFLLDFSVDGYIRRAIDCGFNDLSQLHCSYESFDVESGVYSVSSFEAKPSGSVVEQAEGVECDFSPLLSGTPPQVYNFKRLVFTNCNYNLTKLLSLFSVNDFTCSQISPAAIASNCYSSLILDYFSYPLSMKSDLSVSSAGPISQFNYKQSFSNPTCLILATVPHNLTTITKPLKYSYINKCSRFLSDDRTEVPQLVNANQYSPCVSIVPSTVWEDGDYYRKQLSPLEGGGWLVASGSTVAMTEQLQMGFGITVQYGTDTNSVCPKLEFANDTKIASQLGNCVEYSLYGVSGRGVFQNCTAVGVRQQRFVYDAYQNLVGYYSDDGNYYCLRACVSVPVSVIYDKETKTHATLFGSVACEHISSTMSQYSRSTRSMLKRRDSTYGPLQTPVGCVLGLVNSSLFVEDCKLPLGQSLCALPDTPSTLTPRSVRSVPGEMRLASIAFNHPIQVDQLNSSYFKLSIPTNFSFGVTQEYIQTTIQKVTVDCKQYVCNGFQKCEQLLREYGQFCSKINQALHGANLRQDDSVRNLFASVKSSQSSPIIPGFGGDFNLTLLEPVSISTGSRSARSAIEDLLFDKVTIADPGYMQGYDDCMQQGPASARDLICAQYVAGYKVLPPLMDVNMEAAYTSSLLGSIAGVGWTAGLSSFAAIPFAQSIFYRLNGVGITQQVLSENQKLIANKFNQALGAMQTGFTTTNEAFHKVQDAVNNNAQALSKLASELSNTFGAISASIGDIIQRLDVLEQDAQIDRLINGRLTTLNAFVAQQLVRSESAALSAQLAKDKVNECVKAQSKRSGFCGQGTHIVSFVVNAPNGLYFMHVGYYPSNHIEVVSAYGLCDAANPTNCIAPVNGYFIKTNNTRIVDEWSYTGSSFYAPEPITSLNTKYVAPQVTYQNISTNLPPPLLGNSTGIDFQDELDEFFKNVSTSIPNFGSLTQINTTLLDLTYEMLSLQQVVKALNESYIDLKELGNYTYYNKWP

B1: bebtelovimab (antibody, V domains shown)
VH: QITLKESGPTLVKPTQTLTLTCTFSGFSLSISGVGVGWLRQPPGKALEWLALIYWDDDKRYSPSLKSRLTISKDTSKNQVVLKMTNIDPVDTATYYCAHHSISTIFDHWGQGTLVTVSS
VL: QSALTQPASVSGSPGQSITISCTATSSDVGDYNYVSWYQQHPGKAPKLMIFEVSDRPSGISNRFSGSKSGNTASLTISGLQAEDEADYYCSSYTTSSAVFGGGTKLTVLG
With B1 the “EC50, live virus neutralization” value [1] was 0.0016 mg/L.

B2: Reference Antibody (antibody, V domains shown)
VH: EVQLVESGAEVKKPGESLKISCKGSGYTFTRYWIGWVRQMPGKGLEWMGIIYPGDSDTRYSPSFQGHVTISADKSISTAYLQWNSLKASDTAMYYCARLPQYCSNGVCQRWFDPWGQGTLVTVSS
VL: EIVLTQSPSSVSASVGDRVTITCRASQGISSWLAWYQQKPGKAPKLLIYAASSLQSGVPSRFSGSGSGTDFTLTISSLQPEDFATYYCQQGNSFPYTFGQGTNLEIK
In the case of B2, the “IC50, pseudovirus neutralization” value [2] is reported as 0.0352 mg/L, the “IC50, pseudovirus neutralization” value [3] is reported as 0.0196 mg/L and the “% neutralization at 4.5 µg/ml, pseudovirus” value [4] is reported as 94.3%. For the same binder, the “% neutralization at 4.5 µg/ml, pseudovirus” value [5] was 97.6%, the “IC50, pseudovirus neutralization” value [6] was 0.244 mg/L and the “IC50, pseudovirus neutralization” value [7] was 0.473 mg/L.

B3: AB-1 Fab (Fab, V domains shown)
VH: B2 VH with T58V, N105K, Q109Y
VL: B2 VL with N92H
B3: no binding (tested: 600 nM highest Fab concentration) [8].

B4: Reference Antibody Fab (Fab, V domains shown)
VH: B2 VH
VL: B2 VL
B4: no binding (tested: 600 nM highest Fab concentration) [8].

— US20230357367A1 (GENERATE BIOMEDICINES, published 2023)
